We go through one molecule from PMC8126848 (Proceedings of the National Academy of Sciences of the …, 2021).

The assay concerns the target soluble ectodomain of ICAM-1 (intercellular adhesion molecule-1), domains D1 to D5 (UniProt P05362 28-480). Briefly: cryo-EM structure.

Chain of soluble ectodomain of ICAM-1 (intercellular adhesion molecule-1), domains D1 to D5 (P05362 28-480): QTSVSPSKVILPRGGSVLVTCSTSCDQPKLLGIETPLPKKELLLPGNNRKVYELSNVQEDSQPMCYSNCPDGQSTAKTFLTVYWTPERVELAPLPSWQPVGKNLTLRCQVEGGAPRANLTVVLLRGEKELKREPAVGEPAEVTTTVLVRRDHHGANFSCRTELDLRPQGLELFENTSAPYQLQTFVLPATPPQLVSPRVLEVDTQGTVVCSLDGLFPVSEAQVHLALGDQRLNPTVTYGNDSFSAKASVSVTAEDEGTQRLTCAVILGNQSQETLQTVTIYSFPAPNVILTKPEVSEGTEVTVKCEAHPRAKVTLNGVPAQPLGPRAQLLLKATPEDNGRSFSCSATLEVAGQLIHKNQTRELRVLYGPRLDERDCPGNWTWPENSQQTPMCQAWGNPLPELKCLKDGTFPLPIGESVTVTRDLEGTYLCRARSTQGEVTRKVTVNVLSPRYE

B1: rhinovirus 14 capsid protein VP2 (natural protein, rhinovirus 14 (strain 1059), UniProt P03303 70-331, looked up)
chain: SPNVEACGYSDRVQQITLGNSTITTQEAANAVVCYAEWPEYLPDVDASDVNKTSKPDTSVCRFYTLDSKTWTTGSKGWCWKLPDALKDMGVFGQNMFFHSLGRSGYTVHVQCNATKFHSGCLLVVVIPEHQLASHEGGNVSVKYTFTHPGERGIDLSSANEVGGPVKDVIYNMNGTLLGNLLIFPHQFINLRTNNTATIVIPYINSVPIDSMTRHNNVSLMVIPIAPLTVPTGATPSLPITVTIAPMCTEFSGIRSKSIVPQ
With B1, the binding result was “binds”.
